In IntAct's records for PubMed 16709668:

B1: "Peptide-N(4)-(N-acetyl-beta-glucosaminyl)asparagine amidase" (Mus musculus), Q9JI78 (parent)
chain: MASATLGSSSSSASPAVAELCQNTPETFLEASKLLLTYADNILRNPSDEKYRSIRIGNTAFSTRLLPVRGAVECLFEMGFEEGETHLIFPKKASVEQLQKIRDLIAIERSSRLDGSSKKVQFSQHPAAAKLPLEQSEDPAGLIRHSGNQTGQLPSLPSAPMVVGDSTILKVLQSNIQHVQLYENPVLQEKALTCIPVSELKRKAQEKLFRARKLDKGTNVSDEDFLLLELLHWFKEEFFRWVNNIVCSKCGGETRSRDEALLPNDDELKWGAKNVENHYCDACQLSNRFPRYNNPEKLLETRCGRCGEWANCFTLCCRALGFEARYVWDYTDHVWTEVYSPSQQRWLHCDACEDVCDKPLLYEIGWGKKLSYIIAFSKDEVVDVTWRYSCKHDEVMSRRTKVKEELLRETINGLNKQRQLSLSESRRKELLQRIIVELVEFISPKTPRPGELGGRVSGSLAWRVARGETGLERKEILFIPSENEKISKQFHLRYDIVRDRYIRVSDNNINISGWENGVWKMESIFRKVEKDWNMVYLARKEGSSFAYISWKFECGSAGLKVDTVSIRTSSQSFESGSVRWKLRSETAQVNLLGDKNLRSYNDFSGATEVTLEAELSRGDGDVAWQHTQLFRQSLNDSGENGLEIIITFNDL

Variants of: B1
Settings: with tera_mouse Vcp

Row | Variant | effect of a mutation on the interaction
1 | N41P | disrupting interaction
2 | G79A;F80A | disrupting interaction
